Results from US20210388097A1 (SORRENTO THERAPEUTICS, published 2021).

T1: his-tagged human BCMA protein (ACROBiosystems, catalog # BCA-H522y-100 ug) (human, UniProt Q02223 1-54)
T1 construct: limits of the bought construct are not otherwise stated; also called recombinant his-tagged human BCMA; not shown: his tag of the bought protein
T1 sequence: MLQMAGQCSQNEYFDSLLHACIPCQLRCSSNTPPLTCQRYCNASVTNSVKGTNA

T2: Wild type human BCMA protein-mouse Fc (human)
T2 construct: also called wild type human BCMA-mouse Fc; wild type BCMA protein
T2 chain: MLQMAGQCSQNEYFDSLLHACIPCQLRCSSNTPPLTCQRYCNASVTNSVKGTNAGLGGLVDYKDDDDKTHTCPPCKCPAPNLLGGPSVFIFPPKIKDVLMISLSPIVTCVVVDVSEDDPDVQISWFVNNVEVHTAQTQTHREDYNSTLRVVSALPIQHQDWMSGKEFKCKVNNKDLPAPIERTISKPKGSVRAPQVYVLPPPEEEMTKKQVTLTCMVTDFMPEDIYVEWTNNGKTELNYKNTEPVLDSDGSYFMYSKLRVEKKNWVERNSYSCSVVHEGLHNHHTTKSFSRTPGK

T3: Mutant-2 human BCMA protein-mouse Fc (human)
T3 construct: also called mutant-2 human BCMA-mouse Fc (del32-35G); mutant-2 BCMA protein
T3 chain: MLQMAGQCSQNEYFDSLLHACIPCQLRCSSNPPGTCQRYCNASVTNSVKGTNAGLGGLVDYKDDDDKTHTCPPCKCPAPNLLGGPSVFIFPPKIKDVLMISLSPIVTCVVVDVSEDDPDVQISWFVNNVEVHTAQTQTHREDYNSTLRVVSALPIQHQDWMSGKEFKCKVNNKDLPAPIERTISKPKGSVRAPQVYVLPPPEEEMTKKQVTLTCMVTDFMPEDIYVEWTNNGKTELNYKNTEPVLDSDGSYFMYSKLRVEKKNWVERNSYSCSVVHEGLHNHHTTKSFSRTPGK

T4: his-tagged mouse BCMA protein (ACROBiosystems, catalog # BCA-M52H3) (mouse, UniProt O88472 1-49)
T4 construct: Bought protein; not shown: his tag
T4 chain (looked up): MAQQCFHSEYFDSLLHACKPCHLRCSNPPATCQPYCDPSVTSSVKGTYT


Key:
[1] = biological target: T1, his-tagged human BCMA protein …; assay: SPR (Biacore T200, 25 C), antibody captured on anti-human Fc, his-tagged human BCMA as analyte, 1:1 binding model
Procedure: (§1) Binding kinetics of anti-BCMA antibodies with his-tagged human BCMA protein (ACROBiosystems, catalog # BCA-H522y-100 ug, UniProt Q02223-1, SEQ ID NO:92) was measured using surface plasmon resonance (SPR). Kinetic interactions between the antibodies and his-tagged BCMA proteins were measured at 25° C. using Biacore T200 surface plasmon resonance (GE Healthcare). Anti-human fragment crystallizable region (Fc region) antibody was immobilized on a CM5 sensor chip to approximately 8000 resonance units (RU) using standard N-hydroxysuccinimide/N-Ethyl-N′-(3-dimethylaminopropyl) carbodiimide hydrochloride (NHS/EDC) coupling methodology. The anti-BCMA antibody (2 μg/mL) was captured for 60 seconds at a flow rate of 10 μL/minute. The his-tagged BCMA protein was run at six different dilutions of 3.12, 6.25, 12.5, 25, 50, 100 and 200 nM, in a running buffer of 0.01 M HEPES pH 7.4, 0.15 M NaCl, 3 mM EDTA, 0.05% v/v Surfactant P20 (HBS-EP+). The 25 nM BCMA protein run was measured two times. All measurements were conducted in HBS-EP+ buffer with a flow rate of 30 μL/minute. A 1:1 (Langmuir) binding model was used to fit the data. The SPR sensorgrams of anti-BCMA antibodies BCA7, GSK J6M0, BC4C9 and BC5C4 are shown in FIGS. 1, 2, 3 and 4, respectively, and their corresponding binding kinetics are listed in Table 3.

[2] = biological target: T2, Wild type human BCMA protein-mouse Fc; assay: bio-layer interferometry, antibody (100 nM) loaded on AR2G sensor, BCMA-mouse Fc in solution
Procedure: (§2) The results of the protein-protein binding assays described in Example 8 were used to design an epitope mapping assay using bio-layer interferometry. Various anti-BCMA antibodies (2C5, 2E1, 4C9, 6G8, Bluebird C11D5, GSK J6M0, or isotype control) (100 nM) were loaded onto AR2G sensors and reacted with buffer or one of three types of human BCMA proteins including: including: wild type human BCMA-mouse Fc (SEQ ID NO:5), mutant-1 human BCMA-mouse Fc (double mutation 17G-18G; SEQ ID NO:6), or mutant-2 human BCMA-mouse Fc (mutation del32-35G; SEQ ID NO:7).

[3] = biological target: T3, Mutant-2 human BCMA protein-mouse Fc; assay: as above
Procedure: as §2

[4] = biological target: T4, his-tagged mouse BCMA protein …; assay: SPR (Biacore T200), antibody captured on anti-human Fc chip, his-tagged mouse BCMA as analyte
Procedure: as §1, with “The SPR sensorgrams of anti-BCMA antibodies BCA7, GSK J6M0, BC4C9 and BC5C4 are shown in FIGS. 1, 2, 3 and 4, respectively, and their corresponding binding kinetics are listed in Table 3.” left out
(§3) Cross reactivity of two of the anti-BCMA antibodies, BCA7-2C5 and BCA7-2E1, with his-tagged human, cynomolgus or mouse BCMA protein were analyzed by SPR in the manner as described above. […]

[5] = biological target: T1, his-tagged human BCMA protein …; assay: SPR (Biacore T200), antibody captured on anti-human Fc chip, his-tagged human BCMA as analyte
Procedure: as §1, with “The SPR sensorgrams of anti-BCMA antibodies BCA7, GSK J6M0, BC4C9 and BC5C4 are shown in FIGS. 1, 2, 3 and 4, respectively, and their corresponding binding kinetics are listed in Table 3.” left out
as §3

[6] = biological target: T5, his-tagged cynomolgus BCMA protein (ACROBiosystems, catalog # BCA-052H7) (cynomolgus, UniProt A0A2K5UD97 1-53); assay: SPR (Biacore T200), antibody captured on anti-human Fc chip, his-tagged cynomolgus BCMA as analyte
T5 construct: Bought protein; also called cyno BCMA; not shown: his tag
Procedure: as §1, with “The SPR sensorgrams of anti-BCMA antibodies BCA7, GSK J6M0, BC4C9 and BC5C4 are shown in FIGS. 1, 2, 3 and 4, respectively, and their corresponding binding kinetics are listed in Table 3.” left out
as §3

[7] = biological target: T1, his-tagged human BCMA protein …; assay: SPR (Biacore T200), antibody captured on anti-human Fc, his-tagged human BCMA as analyte; fit with ka1/kd1/ka2/kd2 (model not named)
Procedure: as §1, with “A 1:1 (Langmuir) binding model was used to fit the data.” left out
Binding kinetics of optimized anti-BCMA antibodies BCA7-2C5, BCA7-2D11, BCA7-2G2, BCA7-2E1, BCA7-2D8 and BCA7-2E8, with his-tagged human BCMA protein (ACROBiosystems, catalog # BCA-H522y-100 ug), were analyzed in the manner as described above.

T5 sequence (A0A2K5UD97 entry or part of it): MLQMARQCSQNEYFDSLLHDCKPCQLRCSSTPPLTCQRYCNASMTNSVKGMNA

Binder	Kd [1] [nM]	koff [1] [s⁻¹]	kon [1] [M⁻¹ s⁻¹]	binding result [2]	binding result [3]	Kd [4] [nM]	Kd [5] [nM]	Kd [6] [nM]	Kd [7] [nM]	ka1 [7] [M⁻¹ s⁻¹]	ka2 [7] [s⁻¹]	kd1 [7] [s⁻¹]	kd2 [7] [s⁻¹]
BC5C4 antibody (antibody, V domains shown, also called CD5C4) VH: EVQLVESGGGLVQPGRSLRLSCAASGFTFDDYAMHWVRQAPGKGLEWVSGISWNSGSIGYADSVKGRFTISRDNAKNSLYLQMNSLRAEDTAVYYCATIDNVAFHSWGQGTLVTVSS VL: QSVLTQPPSASGSPGQSVTISCTGTSSDIGGYNYVSWYQQHPGKAPKLIIYEVSNRPSGVSDRFSGSKSGNTASLTISGLQAEDEADYYCSSYTDNGALVVFGGGTKLTVL	9.27	0.033	3.56e+06										
BCA7-2E1 antibody (antibody, V domains shown, also called BCA-2E1) VH: EVQLVESGGGLVKPGGSLRLSCAASGFTSSTAWMSWVRQAPGKGLEWVGRIKSKSDGGTTDYAAPVKGRFTISRDDSKNTLFLQMNSLKTEDTAVYYCAKGGGTYGYWGQGTTVTVSS VL: QSALTQPASVSGSPGQSVTISCTGTSSDGGGHTYVSWYQQHPGKAPKLMIYDVSNRPSWVSNRFSGSKSGNTASLTISGLQAEDEADYYCGSYTSSGSYVFGTGTKLTVL				binds	binds	1000	20.4	174	20.4	2.51e+06	0.0018	0.151	0.000929
BCA7-2G2 antibody (antibody, V domains shown) VH: EVQLVESGGGLVKPGGSLRLSCAASGFTSSTAWMSWVRQAPGKGLEWVGRIKSKSDGGTTDYAAPVKGRFTISRDDSKNTLFLQMNSLKTEDTAVYYCAKGGGTYGYWGQGTTVTVSS VL: QSVLTQPASVSGSPGQSVTISCTGTSSSVGGRQYVSWYQQHPGKAPKLMIYDVSNRPSGVSNRFSGSKSGNTASLTISGLQAEDEADYYCGSYTSSGSYVFGTGTKLTVL									53.7	32100	0.00143	0.00376	0.00121
BCA7-2D11 antibody (antibody, V domains shown) VH: EVQLVESGGGLVKPGGSLRLSCAASGFTSSTAWMSWVRQAPGKGLEWVGRIKSKSDGGTTDYAAPVKGRFTISRDDSKNTLFLQMNSLKTEDTAVYYCAKGGGTYGYWGQGTTVTVSS VL: SYELTQPASVSGSPGQSVTISCTGTSSVVGGHDYVSWYQQHPGKAPKLMIYDVSNRPSGVSNRFSGSKSGNTASLTISGLQAEDEADYYCGSYTSSGSYVFGTGTKVTVL									21.9	1.87e+06	0.00381	0.261	0.00071
BCA7-2E8 antibody (antibody, V domains shown) VH: EVQLVESGGGLVKPGGSLRLSCAASGFTSSTAWMSWVRQAPGKGLEWVGRIKSKSDGGTTDYAAPVKGRFTISRDDSKNTLFLQMNSLKTEDTAVYYCAKGGGTYGYWGQGTTVTVSS VL: QSVLTQPASVSGSPGQSVTISCTGTSSDVGGYNYVSWYQQHPGKAPKLMIYDVSNRPSGVSNRFSGSKSGNTASLTISGLQAEDEADYYCGSLRSNGDYVFGTGTTLTVL									155	48700	0.0119	0.0202	0.00707
BCA7-2D8 antibody (antibody, V domains shown) VH: EVQLVESGGGLVKPGGSLRLSCAASGFTSSTAWMSWVRQAPGKGLEWVGRIKSKSDGGTTDYAAPVKGRFTISRDDSKNTLFLQMNSLKTEDTAVYYCAKGGGTYGYWGQGTTVTVSS VL: QSVLTQPASVSGSPGQSVTISCTGTSSSIGDSYYVSWYQQHPGKAPKLMIYDVSNRPSGVSNRFSGSKSGNTASLTISGLQAEDEADYYCGSYTSSGSYVFGTGTTLTVL									83.8	2.43e+06	0.0113	1.09	0.0026
BC4C9 antibody (antibody, V domains shown) VH: EVQLVQSGAEVKKPGASVKVSCKAFGYTFTSYDINWVRQATGQGLEWMGWMNPNSGNTGYAQKFQGRVTMTRNTSISTAYMELSSLRSEDTAVYYCASGLGEWGQGTLVTVSS VL: QSVLTQPASVSGSPGQSVTISCTGTSSDVGGYNYVSWYQQHPGKAPKLMIYDVSKRPSGVSNRFSGSKSGNTASLTISGLQAEDEADYYCISYSSSSTFYVFGTGTKVTVL	27.3	0.000567	20800	binds	binds								
